Values belong to the binder of their own block, whether it stands above or below them.
Tests used:
hTie2-Fc (R&D Systems) = molecular target: T1, hTie2-Fc (R&D Systems) (human, UniProt Q02763 23-745); assay: Complex ELISA: coated Tie2-Fc (4 ug/ml), 0.25 ug/ml Ang2 and 2 ug/ml 10D6, anti-mouse IgG-HRP, OD450
T1 construct: Bought fusion protein; neither the Tie2 range nor the linker is stated; also called hTie-2/Fc 융합 단백질; not shown: Fc of human IgG1

[1] = molecular target: Mutant Ang2 A449 (알라닌 치환), FLAG-tagged (human) (UniProt O15123); assay: ELISA, coated antibody (1000 nM), 250 ng FLAG-tagged mutant Ang2, anti-FLAG-HRP, OD450
[2] = molecular target: Mutant Ang2 K468 (알라닌 치환), FLAG-tagged (human) (UniProt O15123); assay: as above
[3] = molecular target: Mutant Ang2 P419 (알라닌 치환), FLAG-tagged (human) (UniProt O15123); assay: as above
[4] = molecular target: Mutant Ang2 F469 (알라닌 치환), FLAG-tagged (human) (UniProt O15123); assay: as above
[5] = molecular target: Mutant Ang2 N467 (알라닌 치환), FLAG-tagged (human) (UniProt O15123); assay: as above
[6] = molecular target: Mutant Ang2 I434 (알라닌 치환), FLAG-tagged (human) (UniProt O15123); assay: as above
[7] = molecular target: Mutant Ang2 N421 (알라닌 치환), FLAG-tagged (human) (UniProt O15123); assay: as above
[8] = molecular target: Mutant Ang2 S417 (알라닌 치환), FLAG-tagged (human) (UniProt O15123); assay: as above
[9] = molecular target: Mutant Ang2 D448 (알라닌 치환), FLAG-tagged (human) (UniProt O15123); assay: as above
[10] = molecular target: Mutant Ang2 P452 (알라닌 치환), FLAG-tagged (human) (UniProt O15123); assay: as above
[11] = molecular target: Mutant Ang2 Q418 (알라닌 치환), FLAG-tagged (human) (UniProt O15123); assay: as above
[12] = molecular target: Mutant Ang2 Y460 (알라닌 치환), FLAG-tagged (human) (UniProt O15123); assay: as above
[13] = molecular target: T2, 재조합 hAng-2 (C-His, R&D Systems) (human, UniProt O15123 19-496); assay: SPR, BIAcore T100; hAng-2 (C-His) captured on an anti-His CM5 chip, antibody flowed from 100 nM in 2-fold dilutions
T2 construct: Bought protein; also called 인간 Ang-2 단백질; not shown: C-terminal His tag
T2 sequence: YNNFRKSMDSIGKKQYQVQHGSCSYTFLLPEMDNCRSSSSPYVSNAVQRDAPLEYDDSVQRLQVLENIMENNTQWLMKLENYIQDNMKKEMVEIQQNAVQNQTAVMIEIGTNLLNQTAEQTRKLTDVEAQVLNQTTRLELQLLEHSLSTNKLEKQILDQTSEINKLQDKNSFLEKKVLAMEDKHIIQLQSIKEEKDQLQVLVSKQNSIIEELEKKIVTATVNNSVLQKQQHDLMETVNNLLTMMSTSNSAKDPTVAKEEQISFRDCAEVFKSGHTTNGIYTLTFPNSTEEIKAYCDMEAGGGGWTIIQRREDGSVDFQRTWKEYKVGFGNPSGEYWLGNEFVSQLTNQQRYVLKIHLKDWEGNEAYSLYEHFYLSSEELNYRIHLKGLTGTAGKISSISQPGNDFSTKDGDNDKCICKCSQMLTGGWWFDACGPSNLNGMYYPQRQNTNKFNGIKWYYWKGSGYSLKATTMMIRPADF

T1 sequence (Q02763 23-745 limits assumed): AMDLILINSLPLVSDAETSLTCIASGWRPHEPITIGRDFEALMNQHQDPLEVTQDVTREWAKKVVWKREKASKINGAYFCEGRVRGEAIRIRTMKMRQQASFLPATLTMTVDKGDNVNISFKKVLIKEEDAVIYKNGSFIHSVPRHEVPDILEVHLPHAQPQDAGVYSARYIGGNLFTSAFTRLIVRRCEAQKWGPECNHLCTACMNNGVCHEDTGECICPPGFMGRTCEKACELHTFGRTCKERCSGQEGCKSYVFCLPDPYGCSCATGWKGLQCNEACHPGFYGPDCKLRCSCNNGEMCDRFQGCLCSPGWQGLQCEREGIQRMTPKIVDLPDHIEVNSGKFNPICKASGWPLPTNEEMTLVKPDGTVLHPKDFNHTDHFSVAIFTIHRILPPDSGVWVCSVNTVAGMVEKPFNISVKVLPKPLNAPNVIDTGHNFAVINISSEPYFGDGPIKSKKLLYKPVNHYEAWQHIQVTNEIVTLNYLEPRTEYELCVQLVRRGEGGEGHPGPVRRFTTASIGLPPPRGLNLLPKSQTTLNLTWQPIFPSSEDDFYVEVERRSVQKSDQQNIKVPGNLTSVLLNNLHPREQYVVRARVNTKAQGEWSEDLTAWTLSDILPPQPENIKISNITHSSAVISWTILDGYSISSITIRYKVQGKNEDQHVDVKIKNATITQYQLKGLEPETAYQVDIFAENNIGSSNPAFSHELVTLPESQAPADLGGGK

binding result (hTie2-Fc (R&D Systems)): binds
B1: Ang2 단백질(R&D systems) (ligand)
chain: T2 sequence

binding to Mutant Ang2 relative to native Ang2 (%) [1]: 97.9% | binding to Mutant Ang2 relative to native Ang2 (%) [2]: 110% | binding to Mutant Ang2 relative to native Ang2 (%) [3]: 41.1% | binding to Mutant Ang2 relative to native Ang2 (%) [4]: 109% | binding to Mutant Ang2 relative to native Ang2 (%) [5]: 107% | binding to Mutant Ang2 relative to native Ang2 (%) [6]: 109% | binding to Mutant Ang2 relative to native Ang2 (%) [7]: 109% | binding to Mutant Ang2 relative to native Ang2 (%) [8]: 101% | binding to Mutant Ang2 relative to native Ang2 (%) [9]: 105% | binding to Mutant Ang2 relative to native Ang2 (%) [10]: 102% | binding to Mutant Ang2 relative to native Ang2 (%) [11]: 38.9% | binding to Mutant Ang2 relative to native Ang2 (%) [12]: 103% | Kd [13]: 8 nM
B2: SAIT-ANG2-AB-m10D6 (antibody, V domains shown)
VH: DVQLQESGPGLVKPSQSLSLTCTVTGYSITSDYAWNWIRQFPGNKLEWMGYINYSGNTDYNPSLKSRSSITRDTSKNQFFLQLNSVTTGDTATYYCARGNFEGAMDYWGQGTSVTVSS
VL: SIVMTQTPKFLLVSAGDRVTITCKASQSVSNDVAWYQQKPGQSPKLLIYYASNRYPGVPDRFTGSGYGTDFTFTISTVQAEDLAVYFCQQDYSSPWTFGGGTKLEIK
notes: Mouse monoclonal antibody from a hybridoma (KCLRF-BP-00295), purified on protein G; also called 10D6 항체; 10D6 anti-Ang2 항체

— patent KR20200144536A (dated 2020)
